In paper PMC314469, “Protein Interaction Networks by Proteome Peptide Scanning” (PLoS Biology, 2004):

Biological target: Sho1 SH3 (SHO1_YEAST), P40073
Test: SPOT array

Sho1 SH3 (SHO1_YEAST), P40073, sequence (P40073 295-366): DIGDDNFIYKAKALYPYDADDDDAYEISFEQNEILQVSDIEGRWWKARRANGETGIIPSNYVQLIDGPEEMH

Row | Binder | normalised SPOT signal, Boehringer light units (BLU); mean over the file's lines of this peptide
1 | RIPPTVPSKIIDVV [7-20 Hypothetical ORF] | 521
2 | RERPLEPPRKPMAS | 554
3 | QTSPGQPRKGQNGS [427-440 soluble tyrosine-specific protein phosphatase] | 61.3
4 | NLKPERPSKVSFEM [548-561 " Non-membrane-embedded, PEST sequence-containing protein"] | 339
5 | NKVPTNPKKFKKAP [326-339 " involved in silencing at telomeres, HML, and HMR"] | 291
6 | NSPPVYPKRIRHFE [22-35 Hypothetical ORF] | 177
7 | PPPPPPPSRKSGTP [477-490 Hypothetical ORF] | 261
8 | RPNPTQPRKPLDSK [776-789 vacuolar import degradation] | 99.9
9 | PVGPKVPAKEPSPK [874-887 Hypothetical ORF] | 5820
10 | RAVPILPPRNNVEP [543-556 Hypothetical ORF] | 126
11 | QIFPKKPLRRTVMS [166-179 involved in ion homeostasis] | 534
12 | QRHPKSPVKKPMTS [878-891 involved in bud site selection] | 190
13 | RKRPAPPKKKAPST [82-95 ISWI One Complex] | 208
14 | PLQPRPPVKPLSKQ [87-100 35 kDa mitochondrial ribosomal small subunit protein] | 85.4
15 | PSNPALPKKLLNVP [345-358 negative regulator of early meiotic genes] | 178
16 | QSQPPRPPRPAANL [24-37 Hypothetical ORF] | 128
17 | QNTPPLPPKPKSPH [175-188 homologous to mouse and human Tsg101 tumor susceptibility genes] | 8430
18 | QYYPEEPTKPTVKT [6-19 gamma-aminobutyrate (GABA) transaminase (4-aminobutyrate aminotransferase)] | 111
19 | QEKPLTPLKYTKLI [160-173 subunit of the chromatin remodeling Snf/Swi complex] | 143

Row | Binder | normalised SPOT signal, Boehringer light units (BLU); mean over the file's lines of this peptide
20 | PPEPATPSKKSLTT [169-182 origin recognition complex subunit 2] | 46
21 | QKTPPSPAKPKQKT [26-39 Component of the exocyst complex; homolog in rat brain called rExo84.] | 203
22 | RGTPANPGRVATLI [47-60 Hypothetical ORF] | 123
23 | RRGPGRPRKDASTS [204-217 nuclear protein involved in silencing] | 998
24 | PNEPGAPSRLSFEN [285-298 ubiquitin carboxyl-terminal hydrolase] | 85.1
25 | NYIPPDPPKDIQLN [239-252 Hypothetical ORF] | 38.1
26 | PPVPKAPSRRSSSL [943-956 negative regulator of early meiotic gene expression] | 144
27 | NLDPNPPVRGENLT [61-74 Hypothetical ORF] | 206
28 | RVHPEPPNKPGITT [407-420 Hypothetical ORF] | 149
29 | PVYPSLPERSKVIL [44-57 telomere binding protein] | 210
30 | PIMPTLPPRPYITI [537-550 Hypothetical ORF] | 228
31 | PLIPDNPGRLLSSK [311-324 Hypothetical ORF] | 83.2
32 | QLTPLLPDKYFDSA [693-706 putative transcription factor] | 57.6
33 | QLLPNVPDKVLVPG [391-404 binds to single-stranded TG1-3 telomere G-tails] | 46.5
34 | NMVPLNPNRIIPDE [189-202 Product of gene unknown] | 130
35 | PFIPKFPSRESVES | 163
36 | PFLPVLPQKPGGVR [35-48 succinate dehydrogenase membrane anchor subunit] | 1380
37 | NSLPSSPKKQPARN [173-186 Hypothetical ORF] | 198
38 | PNYPDSPPKVTFIS [66-79 Similar to ubiquitin conjugating protein family] | 187

The next lines start with the values.

Row | normalised SPOT signal, Boehringer light units (BLU); mean over the file's lines of this peptide | Binder
39 | 195 | QGYPRQPQRPQRYH [27-40 "heat shock protein similar to HSP26, involved in cytoskeleton assembly"]
40 | 144 | PNSPTPPLKSKVSR [1337-1350 transcriptional regulator]
41 | 140 | QGLPASPSRAALRY [55-68 chitin synthase 2]
42 | 82.5 | NVQPRKPSRVHSRN [634-647 Hypothetical ORF]
43 | 130 | PKDPSSPQRDEILT [27-40 Hypothetical ORF]
44 | 1440 | RPTPRKPSRMATDH [8-21 Transmembrane osmosensor]
45 | 87.5 | RNEPVKPFRNIDLK [29-42 delta-1-pyrroline-5-carboxylate dehydrogenase]
46 | 118 | QDSPDMPEKESVYV
47 | 1300 | RPSPWLPSKPNSYH
48 | 498 | QPAPRIPSKDAIIS [100-113 transcription factor]
49 | 173 | RRKPHSPNKKKPKE [12-25 Hypothetical ORF]
50 | 102 | NVDPASPWRHELLS [76-89 Hypothetical ORF]
51 | 85.2 | RLIPTSPQKTNINT [14-27 Hypothetical ORF]
52 | 190 | NNNPVPPQKINQPP [198-211 Hypothetical ORF]
53 | 124 | QGEPLDPKRPSTAS [141-154 glucosidase I]
54 | 117 | RPPPLTPEKNLYLT [258-271 Putative participant in 3' mRNA processing]
55 | 900 | PLPPIPPTKSKTSP [535-548 serine/threonine protein kinase]
56 | 159 | QGQPLPPPRGQVIL [287-300 Hypothetical ORF]
57 | 95.2 | QLFPVRPVRVRHED [198-211 " RNA polymerase III (C) subunit, homologus to human BN51 protein"]
58 | 39.1 | QSNPTSPTKQTFTI [600-613 BEM1-binding protein]
59 | 304 | QYIPPPPPKYINSK [482-495 Ume6p is a C6 zinc finger URS1-binding protein.]
